Data set [1] concerns the molecule itself. As to the kind of experiment: SEC; analytical gel filtration on Superose 6 10/300 GL, 100 μl of dilution series injected (RBD 1.5-17.5 μM, ∆N 4.5-35 μM, SARAH 1.5-80 μM), 25 mM HEPES pH 7.4, 300 mM NaCl; MBP-tagged constructs; dimer to monomers. For orientation: SEC sorts molecules by how far they enter the pores of the column.
In data set [2] the target is T1, Aurora A kinase domain (residues 107–403) (human, UniProt O14965 107-403).
T1 construct: Aurora A kinase, human, kinase domain only, residues 107-403
T1 sequence (looked up): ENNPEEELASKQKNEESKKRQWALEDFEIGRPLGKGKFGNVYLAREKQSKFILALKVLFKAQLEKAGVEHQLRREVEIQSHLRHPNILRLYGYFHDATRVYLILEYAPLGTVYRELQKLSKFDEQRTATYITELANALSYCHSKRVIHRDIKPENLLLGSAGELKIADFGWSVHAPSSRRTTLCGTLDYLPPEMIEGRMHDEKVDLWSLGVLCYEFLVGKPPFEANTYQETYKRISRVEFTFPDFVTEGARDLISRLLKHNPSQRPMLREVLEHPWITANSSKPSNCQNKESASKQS
As to the kind of experiment: SPR; Biacore X; Aurora A kinase domain immobilised on a CM5 chip, RASSF1A variants as analytes; HBS-EP (10 mM HEPES pH 7.4, 150 mM NaCl, 3 mM EDTA, 0.005% Tween-20), 25 °C; equilibria not reached because of irreversible aggregation on the surface. To be noted: both partners purified.

Data set [3] addresses T2, Aurora A kinase domain (residues 107–403) (human) (UniProt O14965).
T2 sequence: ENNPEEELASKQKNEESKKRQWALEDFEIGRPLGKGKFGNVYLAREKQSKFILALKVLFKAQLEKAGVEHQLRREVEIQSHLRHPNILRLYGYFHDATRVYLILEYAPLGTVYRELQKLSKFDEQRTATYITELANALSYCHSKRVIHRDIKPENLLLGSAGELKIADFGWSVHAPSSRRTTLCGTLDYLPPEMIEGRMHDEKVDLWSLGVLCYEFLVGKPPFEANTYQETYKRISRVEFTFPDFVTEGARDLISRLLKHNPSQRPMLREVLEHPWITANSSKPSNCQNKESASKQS

The record followed here is article PMC6447619, “New type of interaction between the SARAH domain of the tumour suppressor RASSF1A and its mitotic kinase Aurora A” (Scientific Reports, 2019).

B1: RASSF1A ∆N (residues 121–340) (domain or fragment, UniProt Q9NS23-2 121-340, looked up)
chain: EPVEWETPDLSQAEIEQKIKEYNAQINSNLFMSLNKDGSYTGFIKVQLKLVRPVSVPSSKKPPSLQDARRGPGRGTSVRRRTSFYLPKDAVKHLHVLSRTRAREVIEALLRKFLVVDDPRKFALFERAERHGQVYLRKLLDDEQPLRLRLLAGPSDKALSFVLKENDSGEVNWDAFSMPELHNFLRILQREEEEHLRQILQKYSYCRQKIQEALHACPLG
notes: Ras-association domain family 1 isoform A (RASSF1A), 340 residues, residues 121-340 (RBD plus SARAH domain); numbers count on: isoform A; 69 kDa with the MBP tag; Monomer-dimer equilibrium by SEC; also called ΔN; ΔN fragment; not shown: MBP, N-terminal, kept
Take B1: the “stoichiometry N” value in data set [1] worked out at 2.

B2: SARAH domain of RASSF1A (residues 291–340) (domain or fragment, UniProt Q9NS23-2 291-340, looked up)
chain: VNWDAFSMPELHNFLRILQREEEEHLRQILQKYSYCRQKIQEALHACPLG
notes: Ras-association domain family 1 isoform A (RASSF1A), residues 291-340 (SARAH domain); numbers count on: isoform A; 51 kDa with the MBP tag; Monomer-dimer equilibrium by SEC; also called isolated SARAH domain; SARAH domain construct; not shown: MBP, N-terminal, kept
B2: the “stoichiometry N” value in data set [1] amounted to 2. In data set [2], the binding result was “binds”.

B3: RASSF1A ∆N-∆loop (residues 121–340 lacking the loop 177–197) (domain or fragment)
chain: EPVEWETPDLSQAEIEQKIKEYNAQINSNLFMSLNKDGSYTGFIKVQLKLVRPVSVVRRRTSFYLPKDAVKHLHVLSRTRAREVIEALLRKFLVVDDPRKFALFERAERHGQVYLRKLLDDEQPLRLRLLAGPSDKALSFVLKENDSGEVNWDAFSMPELHNFLRILQREEEEHLRQILQKYSYCRQKIQEALHACPLG
Regarding B3, the Km of phosphorylation of ∆N-∆loop by Aurora A kinase domain (40 nM), 32P incorporation in data set [3] came out at 10 µM.

For orientation: stoichiometry N means a count of units in the complex or per binding partner.
